For test [1], the target named is HLA-C*14:02. Kind of test: IEDB peptide-MHC binding, purified MHC/direct/fluorescence; filed as Kd, often an IC50 or EC50 that approximates it; ≥ and ≤ were set here for values at or beyond the usual limits of such assays.
In test [2] the target is HLA-C*15:02. The description is as above. The following applies: source organism: Homo sapiens.
For test [3], the target named is HLA-A*01:01. Kind of test: IEDB peptide-MHC binding, purified MHC/competitive/fluorescence; filed as Kd, often an IC50 or EC50 that approximates it; ≥ and ≤ were set here for values at or beyond the usual limits of such assays. Particulars: source organism: Homo sapiens.
For test [4], the target named is HLA-A*29:02. The test is described as above. Particulars: source organism: Homo sapiens.
The target of test [5] is HLA-A*26:02. The test can be described thus: IEDB peptide-MHC binding, purified MHC/direct/fluorescence; filed as Kd, often an IC50 or EC50 that approximates it; ≥ and ≤ were set here for values at or beyond the usual limits of such assays.
The target in test [6] is HLA-C*03:03. Described as above. Particulars: source organism: Mycobacterium tuberculosis C.
The target of test [7] is HLA-C*07:02. The description is as above.
Test [8] addresses HLA-B*46:01. Kind of test: IEDB peptide-MHC binding, purified MHC/competitive/fluorescence; filed as Kd, often an IC50 or EC50 that approximates it; ≥ and ≤ were set here for values at or beyond the usual limits of such assays. Particulars: source organism: Mycobacterium tuberculosis C.
Test [9] has as its target HLA-A*26:02. The description is as above.
In test [10] the target is HLA-A*02:03. Described as above. Particulars: source organism: Human immunodeficiency virus 1.
In test [11] the target is HLA-A*68:02. Described as above. The following applies: source organism: Human immunodeficiency virus 1.
The target in test [12] is HLA-A*02:06. The description is as above. Particulars: source organism: Human immunodeficiency virus 1.
Test [13] addresses HLA-A*02:01. Described as above.
Test [14] addresses HLA-A*80:01. Kind of test: IEDB peptide-MHC binding, purified MHC/direct/fluorescence; filed as Kd, often an IC50 or EC50 that approximates it; ≥ and ≤ were set here for values at or beyond the usual limits of such assays. The following applies: source organism: West Nile virus.
Test [15] has as its target HLA-A*26:01. The test is described as above.
Test [16] deals with HLA-A*01:01. Described as above.
In test [17] the target is HLA-A*03:01. The description is as above.
Test [18] addresses HLA-B*15:01. The test is described as above.
In test [19] the target is HLA-B*08:01. The test is described as above. Particulars: source organism: Pseudomonas putida.
Test [20] has as its target HLA-B*07:02. The test is described as above.
The target of test [21] is HLA-A*30:01. The test is described as above. Particulars: source organism: Pseudomonas putida.
Test [22] concerns the target HLA-B*58:01. The test is described as above.
For test [23], the target named is HLA-B*27:05. The description is as above.
The target of test [24] is HLA-A*69:01. The test is described as above. The following applies: source organism: Pseudomonas putida.
The target of test [25] is HLA-A*11:01. Described as above.
The target of test [26] is HLA-A*02:01. Described as above.
Test [27] has as its target HLA-B*40:01. The description is as above.
For test [28], the target named is HLA-B*73:01. The test can be described thus: IEDB peptide-MHC binding, purified MHC/competitive/fluorescence; filed as Kd, often an IC50 or EC50 that approximates it; ≥ and ≤ were set here for values at or beyond the usual limits of such assays. Particulars: source organism: Pseudomonas putida.
Test [29] deals with HLA-B*57:01. The test can be described thus: IEDB peptide-MHC binding, purified MHC/direct/fluorescence; filed as Kd, often an IC50 or EC50 that approximates it; ≥ and ≤ were set here for values at or beyond the usual limits of such assays. Particulars: source organism: Brucella abortus.
The target of test [30] is HLA-A*26:03. Described as above. Particulars: source organism: Brucella suis 1330.
Test [31] has as its target HLA-B*46:01. The test is described as above. Particulars: source organism: Brucella abortus.
In test [32] the target is HLA-A*31:01. Described as above. Particulars: source organism: Brucella abortus.
Test [33] concerns the target HLA-B*48:01. The test is described as above. Particulars: source organism: Brucella abortus.
Test [34] concerns the target HLA-A*68:02. The description is as above. The following applies: source organism: Brucella abortus.
For test [35], the target named is HLA-B*15:17. The test can be described thus: IEDB peptide-MHC binding, purified MHC/competitive/fluorescence; filed as Kd, often an IC50 or EC50 that approximates it; ≥ and ≤ were set here for values at or beyond the usual limits of such assays. The following applies: source organism: Brucella abortus S19.
Test [36] concerns the target HLA-A*03:01. The description is as above. Particulars: source organism: Robiginitalea biformata HTCC2501.
In test [37] the target is HLA-A*31:01. The test is described as above. The following applies: source organism: Robiginitalea biformata HTCC2501.
Test [38] deals with HLA-A*11:01. Described as above. Particulars: source organism: Robiginitalea biformata HTCC2501.
Test [39] has as its target HLA-B*07:02. The description is as above. Particulars: source organism: Influenza A virus (A/Memphis/1/1978(H1N1)).
Test [40] concerns the target HLA-C*12:03. Kind of test: IEDB peptide-MHC binding, purified MHC/direct/fluorescence; filed as Kd, often an IC50 or EC50 that approximates it; ≥ and ≤ were set here for values at or beyond the usual limits of such assays. The following applies: source organism: Vaccinia virus.
In test [41] the target is HLA-B*08:01. Kind of test: IEDB peptide-MHC binding, purified MHC/competitive/radioactivity; filed as Kd, often an IC50 or EC50 that approximates it; ≥ and ≤ were set here for values at or beyond the usual limits of such assays. Particulars: source organism: Vaccinia virus WR.
Where [42] appears, read: source organism: Human immunodeficiency virus 1.
Where [43] appears, read: source organism: West Nile virus.
[44] abbreviates: source organism: Pseudomonas putida.
Setting [45] is: source organism: Brucella abortus.
[46] abbreviates: source organism: Vaccinia virus.

In the case of HMMAVTLFY, the Kd (usually a measure of binding affinity in units of concentration) in test [1] (source organism: Homo sapiens) is 516 nM; in test [2], 4720 nM; in test [3], 57.4 nM; in test [4], 0.2 nM.

In the case of YVFYDGPPF, the Kd in test [5] (source organism: Mycobacterium tuberculosis str. Haarlem) was determined as 11 nM; in [6], 10 nM; in test [7] (source organism: Mycobacterium tuberculosis C), 21 nM; in test [8], 125 nM.

As for EELKSLFNTV, the Kd is 1080 nM in [9] (setting [42]); at least 20000 nM in test [10]; 326 nM in test [11]; 515 nM in test [12]; 1670 nM in test [13] (setting [42]).

As for VVAANRSAF, in test [1] (source organism: Mycobacterium tuberculosis CDC1551), the Kd is 103 nM.

Consider LTKEEFTRY, for which the Kd in [14] came out at 544 nM; in test [5] (setting [43]), 280 nM; in test [15] (setting [43]), 1080 nM; in test [16] (setting [43]), 1150 nM.

Take RVWRGEQGK: the Kd in [17] (setting [44]) was 246 nM; in test [18] (setting [44]), at least 20000 nM; in test [15] (setting [44]) it was at least 20000 nM; in test [19], at least 20000 nM; in [20] (setting [44]) it was at least 20000 nM; in [21], 45 nM. Also, the Kd in test [22] (setting [44]) is at least 20000 nM; in test [23] (setting [44]) it was 7530 nM; in test [24], at least 20000 nM; in [25] (setting [44]) it was 54.8 nM; in test [26] (setting [44]), at least 20000 nM; in test [27] (setting [44]), at least 20000 nM. The Kd in [16] (setting [44]) and in test [28] was at least 20000 nM throughout.

With RFRCVGPAP, the Kd in [17] (setting [45]), in [29], in [30], in test [31], in test [32] and in test [33] was at least 20000 nM throughout. Besides, the Kd in test [18] (setting [45]), in [20] (setting [45]), in [34], in [22] (setting [45]), in test [23] (setting [45]) and in test [25] (setting [45]) was at least 20000 nM throughout. In addition, the Kd in test [26] (setting [45]), in test [27] (setting [45]), in test [16] (setting [45]), in [9] (source organism: Brucella abortus S19) and in [35] was at least 20000 nM in each case.

In turn, ATPENAAAL registered a Kd in [1] (source organism: Mycobacterium tuberculosis variant bovis BCG str. Pasteur 1173P2) of 177 nM.

Regarding PLAKGLFHK, the results for the Kd in [36], in test [37] and in [38] were 6780 nM, at least 20000 nM and 2380 nM, respectively.

Sequence DPLVVAASI displayed an equilibrium dissociation constant (Kd) in test [39] of at least 20000 nM.

With LLYAHINAL, the dissociation constant (Kd) in test [40] worked out at 222 nM; in [7] (setting [46]), 216 nM; in test [13] (setting [46]), 1.6 nM; in test [41] it was 1.37 nM.
